This data set relates to ATP. The experiment in a line: switch fluorescence ratio, 500 uM ATP over buffer (Cy3 cluster intensity, sum of 5 cycles each) (fold (ratio)); higher = stronger signal-on switching upon ATP binding; sequences stand for … in TCGTCGGCAGCGTCAGATGTGTATAAGAGACAGTTTTTTTTTTTTTTTTTTTTTTTTT…TC. The following applies: aptamer strand: ATP DNA aptamer (quencher-CACCTGGGGGAGTATTGCGGAGGAAGG + anchor), 100 nM annealed; ATP concentration: 500 uM. The gist of the method: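 Clusters carrying Cy3-labelled switching strands on a modified Illumina MiSeq flow-cell were annealed to 100 nM quencher-labelled ATP aptamer and imaged in selection buffer. They were imaged again after 15 min with 500 uM ATP at 22 °C, over five buffer/ATP cycles with NaOH stripping and re-annealing in between. For each cluster, the fluorescence ratio is the summed Cy3 intensity of the target cycles divided by that of the buffer cycles, averaged per switch-domain sequence. Clusters outside 100-1000 RFU were left out.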

The values below come from the supplement of paper PMC10126150.

± gives the standard deviation of the averaged measurements.
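Also: ATP exposure 15 min at 22 °C before imaging.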

Consider TTGCTATGTG, for which the switch fluorescence ratio worked out at 0.979 ± 0.015.

As for GTAGAAAGGA, the switch fluorescence ratio was found to be 2.3 ± 1.8.

Take TCGGTTGAAC: the switch fluorescence ratio came out at 1.01 ± 0.031.

As for ACGTAGCTTT, the switch fluorescence ratio was 1.37 ± 0.36.

As to ACGCGTGCGT, the switch fluorescence ratio is 0.988 ± 0.016.

As to TGGGGGCCGT, the switch fluorescence ratio stood at 1.02 ± 0.14.

For the sequence TTGATGAAGA, the switch fluorescence ratio was 1.01 ± 0.036.

Consider TCTTGGGGGA, for which the switch fluorescence ratio was 0.996 ± 0.031.

With CACCGGTGTT, the switch fluorescence ratio came to 1.02 ± 0.032.

As to GACGGGGTTA, the switch fluorescence ratio was 1.02 ± 0.018.

Consider AACTATAAAA, for which the switch fluorescence ratio came out at 1 ± 0.014.

AAGGTTTGCC: the switch fluorescence ratio stood at 0.965 ± 0.028.

For the sequence TCGTTCGGGG, the switch fluorescence ratio amounted to 1.041 ± 0.0049.

For CCGGATGGGT, the switch fluorescence ratio was determined as 1.012 ± 0.0037.

On to CTGATTTTAT, for which the switch fluorescence ratio came out at 0.9856 ± 0.0013.

ATCGCCTTGT: the switch fluorescence ratio worked out at 0.9943 ± 0.0024.

On to GGAATGTTTT, for which the switch fluorescence ratio worked out at 0.994 ± 0.023.

Consider GATGGGGGAA, for which the switch fluorescence ratio was 0.986 ± 0.049.

With TGGGTTGGTA, the switch fluorescence ratio came to 1.02 ± 0.02.

As to AAATGGTGGG, the switch fluorescence ratio came to 1.13 ± 0.16.

As for AGGTTTGCTC, the switch fluorescence ratio was determined as 1.01 ± 0.011.

Consider TAGGGAATAG, for which the switch fluorescence ratio turned out to be 1.14 ± 0.12.

As for TATAAAGGGA, the switch fluorescence ratio stood at 1.04 ± 0.029.

Regarding AAGGGGTGTG, the switch fluorescence ratio is 0.998 ± 0.013.

Regarding TAACGGAGAC, the switch fluorescence ratio stood at 1.35 ± 0.32.

Take AAGCCCGGGG: the switch fluorescence ratio is 1.02 ± 0.025.

Turning to GAAAAATCGA, the switch fluorescence ratio was 0.9882 ± 0.0056.

Regarding AGTTTGGGCA, the switch fluorescence ratio stood at 0.975 ± 0.029.

Take AGTTACGGGA: the switch fluorescence ratio was 1.1 ± 0.03.

Regarding TTCGATGTGG, the switch fluorescence ratio turned out to be 1.01 ± 0.018.

Take TGTTTAAAGG: the switch fluorescence ratio turned out to be 1.02 ± 0.051.

As to ATAGTGCTGT, the switch fluorescence ratio amounted to 0.97717 ± 0.00097.

As to ATTTTAATTG, the switch fluorescence ratio was found to be 1.02 ± 0.016.

As to AGGAGCTTGA, the switch fluorescence ratio came to 1.03 ± 0.018.

As for TCTATTACGC, the switch fluorescence ratio amounted to 1 ± 0.047.

GGGGGACAGG: the switch fluorescence ratio turned out to be 1.05 ± 0.072.

As to ATATCCAGGA, the switch fluorescence ratio was found to be 1.02 ± 0.018.

For the sequence GATAGGGGCT, the switch fluorescence ratio was 0.938 ± 0.042.

On to ATTAGGGACT, for which the switch fluorescence ratio worked out at 0.992 ± 0.035.

For the sequence TTTGTGATAA, the switch fluorescence ratio is 0.969 ± 0.057.

With AACGATCTTT, the switch fluorescence ratio turned out to be 0.9979 ± 0.0084.

Consider GGTTCGGCGG, for which the switch fluorescence ratio was 1.01 ± 0.045.

Turning to GAACGGTATT, the switch fluorescence ratio was 1.06 ± 0.065.

Take ATCATGAGGT: the switch fluorescence ratio turned out to be 0.97829 ± 0.00072.

In the case of CATTTAGAGG, the switch fluorescence ratio came to 1.007 ± 0.0073.

With TTCTTGTGTG, the switch fluorescence ratio was 1 ± 0.041.

As to CACCCGGGCA, the switch fluorescence ratio came out at 1.07 ± 0.06.

Turning to TGGATGTGTG, the switch fluorescence ratio worked out at 0.962 ± 0.038.

Consider GTTTTCAAAG, for which the switch fluorescence ratio stood at 0.973 ± 0.037.

With TTTTTCTATG, the switch fluorescence ratio was found to be 0.983 ± 0.05.

On to TATAATATCG, for which the switch fluorescence ratio came to 0.961 ± 0.015.

For the sequence TTGGGGGTGG, the switch fluorescence ratio came to 1.01 ± 0.04.

Regarding GTTGTACTGG, the switch fluorescence ratio came out at 0.944 ± 0.03.

Turning to CTTACGGGCA, the switch fluorescence ratio stood at 1.03 ± 0.033.

Regarding TTGACGACGG, the switch fluorescence ratio was 1.01 ± 0.048.

Take CGGCCTTACC: the switch fluorescence ratio was found to be 1.334 ± 0.0037.

With AGTATCCCTA, the switch fluorescence ratio was 0.998 ± 0.021.

Turning to CAAGATGGGA, the switch fluorescence ratio is 0.963 ± 0.082.

Take AAGCATGCTC: the switch fluorescence ratio was found to be 1.09 ± 0.03.

Turning to AGTTTTTATG, the switch fluorescence ratio was 1.026 ± 0.0028.

On to TTCTAGCTAT, for which the switch fluorescence ratio is 1.58 ± 0.78.

With GTTTAATGGG, the switch fluorescence ratio was found to be 0.999 ± 0.037.

Regarding TTGTTTCGGG, the switch fluorescence ratio came to 0.978 ± 0.018.

As to AACTGCTGTA, the switch fluorescence ratio was found to be 0.999 ± 0.02.

For TGCTGTTGGA, the switch fluorescence ratio was 0.953 ± 0.011.

As to CAATAGGGGA, the switch fluorescence ratio is 1.01 ± 0.017.

As for TTGTTTGTTG, the switch fluorescence ratio is 0.994 ± 0.019.

In the case of ATCGAGTGTG, the switch fluorescence ratio is 1.01 ± 0.027.

For the sequence TGGTTCAGGT, the switch fluorescence ratio came out at 1.02 ± 0.022.

Consider GGTATGGATC, for which the switch fluorescence ratio was 0.9869 ± 0.0084.

For the sequence ATTTTTAATC, the switch fluorescence ratio stood at 1.06 ± 0.14.

Consider TGGGGATCGC, for which the switch fluorescence ratio is 0.983 ± 0.034.

Turning to CAGATGGGGT, the switch fluorescence ratio came to 0.9839 ± 0.001.

For AAAAATTTTT, the switch fluorescence ratio worked out at 0.995 ± 0.052.

As for CAATAGACGG, the switch fluorescence ratio was 1.04 ± 0.046.

With TGAATGAATT, the switch fluorescence ratio stood at 0.997 ± 0.022.

For the sequence GTTGATCTGG, the switch fluorescence ratio worked out at 1.01 ± 0.011.

With GGGTGCTTGG, the switch fluorescence ratio is 1.0239 ± 0.00098.

As to TGTGAGGGGT, the switch fluorescence ratio came out at 0.994 ± 0.033.

Take ACATTCGCGC: the switch fluorescence ratio was determined as 1.148 ± 0.0066.

Take AAAGAGTAAT: the switch fluorescence ratio is 1.006 ± 0.0045.

Turning to TTGTGGCCAT, the switch fluorescence ratio stood at 0.974 ± 0.022.

In the case of TTTAACGATA, the switch fluorescence ratio worked out at 1.07 ± 0.015.

On to GGGGAACACT, for which the switch fluorescence ratio came to 1.01 ± 0.022.

As for AGGCGCGCGG, the switch fluorescence ratio was 0.9507 ± 0.0057.

Consider TTTTGGGAAC, for which the switch fluorescence ratio stood at 1.02 ± 0.037.

As to GCTCGACAAT, the switch fluorescence ratio turned out to be 1.15 ± 0.14.

For the sequence TTTTTCTAAC, the switch fluorescence ratio was 0.996 ± 0.016.

As to TTGTCCGCGG, the switch fluorescence ratio turned out to be 1.06 ± 0.091.

In the case of TCTTTTAGGC, the switch fluorescence ratio came out at 1 ± 0.036.

TATTAGAATC: the switch fluorescence ratio was 0.994 ± 0.026.

With TCAAAAAATT, the switch fluorescence ratio is 1.02 ± 0.037.

Regarding GTCTCAAGTT, the switch fluorescence ratio is 1.02 ± 0.011.

Take AATATTAGGT: the switch fluorescence ratio was 0.995 ± 0.023.

On to CGATACACGT, for which the switch fluorescence ratio worked out at 1.04 ± 0.029.

For the sequence TTGGATGTGA, the switch fluorescence ratio is 0.9622 ± 0.0052.

As for CGGCTTGCTG, the switch fluorescence ratio was found to be 1.03 ± 0.018.

With GCACTCAGGA, the switch fluorescence ratio amounted to 1.03 ± 0.04.

Turning to AAGGGGTGGG, the switch fluorescence ratio came to 1.02 ± 0.032.

In the case of TAATAAGGAG, the switch fluorescence ratio worked out at 1.004 ± 0.0074.

Consider TTTTTGCGAT, for which the switch fluorescence ratio was 0.9982 ± 0.0046.

For TTAAATTTGG, the switch fluorescence ratio is 1.01 ± 0.027.

For the sequence TATGGGGTCA, the switch fluorescence ratio amounted to 0.979 ± 0.018.

With CGTTCCCCCA, the switch fluorescence ratio is 1.355 ± 0.013.

Take TTGAGAGGTT: the switch fluorescence ratio was determined as 1.02 ± 0.039.

Regarding ATACTTGATT, the switch fluorescence ratio stood at 0.994 ± 0.025.

As for TTGGAGTCTG, the switch fluorescence ratio turned out to be 0.994 ± 0.015.

Turning to AGTTTTATCC, the switch fluorescence ratio turned out to be 1.006 ± 0.0052.

For the sequence AGATCCCGCG, the switch fluorescence ratio amounted to 1.03 ± 0.032.

Take ATTTTTTGTG: the switch fluorescence ratio was 0.9732 ± 0.0082.

On to GATATCCGTT, for which the switch fluorescence ratio was found to be 0.976 ± 0.016.

As to TATAACTATT, the switch fluorescence ratio worked out at 0.999 ± 0.042.

As for AAAGAGTAGT, the switch fluorescence ratio was found to be 0.962 ± 0.014.

For TGTGGGGCAA, the switch fluorescence ratio was determined as 1.05 ± 0.019.

In the case of GGTAATATTT, the switch fluorescence ratio was 0.998 ± 0.031.

Take GGTACGGGGG: the switch fluorescence ratio was found to be 1 ± 0.013.

Take GGAGTTGGGA: the switch fluorescence ratio was found to be 1.021 ± 0.0066.

Turning to GGGGTTTGCG, the switch fluorescence ratio was found to be 0.973 ± 0.011.

Take AGATAAAGGG: the switch fluorescence ratio turned out to be 1.03 ± 0.017.

On to TCTTGGTCGT, for which the switch fluorescence ratio is 0.9677 ± 0.0051.
